{"source": "patent US6034062A", "about": "“Bone morphogenetic protein (BMP)-9 compositions and their uses” (Genetics Institute, Inc., priority 1997, dated 2000)", "key": {"[1]": {"assay": "Ectopic bone formation in vivo (implant)", "design": "species or system rat", "settings": "25 μg/implant, after 10 days of implantation", "source_text": "A modified version of the rat bone formation assay described in Sampath and Reddi, Proc. Natl. Acad. Sci. USA 80:6591-6595 (1983) is used to evaluate bone and/or cartilage activity of the BMP proteins. This modified assay is herein called the Rosen-modified Sampath-Reddi assay. The ethanol precipitation step of the Sampath-Reddi procedure is replaced by dialyzing (if the composition is a solution) or diafiltering (if the composition is a suspension) the fraction to be assayed against water. The solution or suspension is then redissolved in 0.1% TFA, and the resulting solution added to 20mg of rat matrix. A mock rat matrix sample not treated with the protein serves as a control. This material is frozen and lyophilized and the resulting powder enclosed in #5 gelatin capsules. The capsules are implanted subcutaneously in the abdominal thoracic area of 21-49 day old male Long Evans rats. The implants are removed after 7-14 days. […]\nThe other half of each implant is fixed and processed for histological analysis. […] glycolmethacrylate sections are stained with Von Kossa and acid fuschin to score the amount of induced bone and cartilage formation present in each implant. […] In a modified scoring method, three non-adjacent sections are evaluated from each implant and averaged. […]"}, "[2]": {"test_system": "W-20-17", "assay": "Alkaline phosphatase activity in W-20-17 osteoprogenitor cell line", "assay_type": "cell-based", "settings": "dose responsive", "procedure": "W-20 cells are plated into 96 well tissue culture plates at a density of 10,000 cells per well in 200 μl of media (DME with 10% heat inactivated fetal calf serum, 2 mM glutamine and 100 U/ml+100 μg/ml streptomycin. The cells are allowed to attach overnight in a 95% air, 5% CO2 incubator at 37° C.\nThe 200 μl of media is removed from each well with a multichannel pipettor and replaced with an equal volume of test sample delivered in DME with 10% heat inactivated fetal calf serum, 2 mM glutamine and 1% penicillin-streptomycin. Test substances are assayed in triplicate.\nThe test samples and standards are allowed a 24 hour incubation period with the W-20 indicator cells. After the 24 hours, plates are removed from the 37° C. incubator and the test media are removed from the cells.\nThe W-20 cell layers are washed 3 times with 200 μl per well of calcium/magnesium free phosphate buffered saline and these washes are discarded.\n50 μl of glass distilled water is added to each well and the assay plates are then placed on a dry ice/ethanol bath for quick freezing. Once frozen, the assay plates are removed from the dry ice/ethanol bath and thawed at 37° C. […]\nThe spectrophotometric absorbance for each well is read at a wavelength of 405 nanometers. […] For example, using known amounts of p-nitrophenol phosphate, absorbance values are generated."}}, "data": [{"molecule": "BMP-9: recombinant human bone morphogenetic protein-9, mature amino acids #1-#110 of SEQ ID NO:9, expressed in CHO cells (protein, 125I-iodinated as tracer; unlabelled BMP-9 used as the displacing ligand) TRECSRSCPRTAPQRQVRAVTRRTRMAHVAAGSTLARRKRSAGAGSHCQKTSLRVNFEDIGWDSWIIAPKEYEAYECKGGCFFPLADDVTPTKHAIVQTLVHLKFPTKVG", "values": [{"measurement": "ectopic bone formation", "setting": "[1]", "result": "inducing cartilage and bone tissue"}, {"measurement": "ED50, stimulation of alkaline phosphatase activity", "setting": "[2]", "result": 4, "unit": "ng/mL"}]}]}
